We go through three substances from patent publication US20100278829A1, “DUAL INHIBITION OF IMMUNOPHILIN/CYCLOPHILIN FAMILY MEMBERS AND EMMPRIN IMMUNOGLOBULIN RECEPTOR SUPERFAMILY MEMBERS” (priority 2009, published 2010).

In one experiment the target is T1, CD147 Pro211 (Homo sapiens, UniProt P35613).
T1 construct: both containing 0.5 mM ^15N-CD147^94-214 at 25° C; made in house
T1 sequence (P35613 94-214 isoform P35613-2): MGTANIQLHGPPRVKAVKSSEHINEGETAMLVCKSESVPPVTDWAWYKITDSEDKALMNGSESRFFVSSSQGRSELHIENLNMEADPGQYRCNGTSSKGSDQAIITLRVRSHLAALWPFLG
Put plainly: ZZ-exchange NMR of CypA-mediated peptidyl-prolyl isomerization of CD147. It is filed as biochemical. The settings on record: for kex (s−1), apparent catalytic exchange rate: [CD147^94-214]=0.5 mM. As for the experimental part: For ZZ-exchange experiments, the pulse scheme of Farrow et al. was employed with a selective adiabatic CHIRP pulse applied in the center of the mixing period for water suppression. (69) Two data sets were collected at 720 MHz on two samples with either 0.01 or 0.05 mM CypA and both containing 0.5 mM ^15N-CD147^94-214 at 25° C. and analyzed as previously described to calculate the apparent cis/trans exchange rate (kex). […] Equations (1a), (1b), (1c), and (1d) below were used to simultaneously fit the auto trans peak (Itt), the auto cis peak (Icc), the trans→cis exchange peak (Itc) and the cis→trans exchange peak (Ict), respectively, as a function of τm·Itt(0) and Icc(0) are the initial intensities of the trans and cis auto peaks, respectively, a11=R1t+ktc, a22=R1c+kct, a21=−ktc, and a12=−kct. Finally, under these conditions, ktc and kct can be recast as a function of their free Keq (Pcis/Ptrans=0.33/0.67), and thus, ktc=0.33 kex and kct=0.67 kex.
GraphPad Prism version 4.0 (GraphPad Software Inc., San Diego, Calif.) was used to simultaneously fit all resolvable peaks within CD147 residues 207-214.
ZZ-exchange was used to determine the apparent catalytic exchange rate of CypA-mediated peptidyl-prolyl isomerization of CD147 Pro211, providing a quantitative analysis of the active CypA/CD147 complex (FIG. 49). Specifically, two ZZ-exchange experiments were collected using identical concentrations of 0.5 mM 15N-CD147^94-214 but with two substoichiometric concentrations of the enzyme (i.e., catalytic concentrations) of 0.01 mM (FIG. 49A) and 0.05 mM (FIG. 49B) CypA. Under each condition, the apparent exchange rate (kex), which is the sum of the apparent cis-trans (i.e., kct) and […] (i.e., ktc) catalytic rates, was determined to quantify the rate enhancement of CypA-mediated catalysis (Table 1).

Experiment [1] concerns Human primary skin keratinocytes (Hka). Put plainly: Cytokine stimulation of Hka, ECL and qRT-PCR readout. Format: cell-based. As for the experimental part: Cell stimulation. Primary T-cells, H9 cells and Th22 cells (1×10^6 cells/ml) were stimulated with PMA (1 ng/ml) and lonomycin (500 ng/ml) for 18 hrs at 37° C. HKa were stimulated with TNFα (1 ng/ml), TNFα (10 ng/ml)+PEG sTNF-RI (10 μg/ml), IL-1β (10 ng/ml), IL-1β ng/ml+IL-1ra 10 µg/ml, IL-1β ng /ml+TNFα 10 ng/ml and IL-32α or IL-32β for 24 hrs. Hka were stimulated with activated H9 and primary T-cells for 24 hrs at 37° C. PEGsTNF-RI and IL-1ra was obtained from Amgen (Thousand Oaks, Calif.).
ECL. A polyclonal antibody produced in rabbits against recombinant IL-32γ was used for ECL. IgG was prepared with Econo-Pac and then affinity purified through IL-32-immobilized agarose bead column of Affi-gel 15. An aliquot of the affinity purified anti-IL-32γ antibody was labeled with biotin and another aliquot with ruthenium according to the manufacturer's instructions (BioVeris, Gaithersburg, Md.). […] The liquid-phase ECL method was used to measure TNFα, IL-1β, IL-6, IL-8 and IL-32γ in human primary keratinocytes cell culture media and cell lysates in 0.5% Triton-X. The amount of ECL was determined by using an Origen Analyzer (BioVeris).
Quantitative real-time quantitative polymerase chain reaction (TaqMan) analysis (qRT-PCR). […] The amount of cDNA added to each reaction was held to a relatively narrow range, determined by the measurement of 18S RNA. […]

Where “and” joins values, the source holds several entries; their conditions need not be identical. Equal entries are not always repeated.

Regarding “CypA: recombinant cyclophilin A, peptidyl-prolyl isomerase enzyme ligand of CD147”, in the experiment with CD147 Pro211 (CypA:CD147 ratio of 1:10), the “kct (cis→trans catalytic rate)” value is 40 s⁻¹ and the “ktc (trans→cis catalytic rate)” value was determined as 20 s⁻¹. In addition, the “kex (s−1), apparent catalytic exchange rate” value with CD147 Pro211 ([CypA]=0.01 mM, 25° C.) was found to be 9.6 ± 3.5 s⁻¹. Moreover, the “kex (s−1), apparent catalytic exchange rate” value in the experiment with CD147 Pro211 ([CypA]=0.05 mM, 25° C.) came to 44.3 ± 8.1 s⁻¹. Also, in the experiment with CD147 Pro211 (extrapolated with the peptide Kd, 25° C.), the “kex extrapolated to the 1:1 / fully bound complex” value was ~6000 s⁻¹ and 4000 to 4800 s⁻¹. Further, the “kex (=kct+ktc)” value in the experiment with CD147 Pro211 (substoichiometric CypA concentrations) was around 60 s⁻¹.

With “IL1ra: recombinant human IL-1 receptor antagonist (Amgen)”, the “reversal of IL1β/TNFα-induced IL32γ gene expression in Hka” value in experiment [1] (qRT-PCR, FIG. 36) was “reversed”.

For “rhuIL-1β: recombinant human IL-1β (R&D Systems) used as inflammatory stimulus”, the “induction of cytoplasmic IL-32γ in Hka” value in experiment [1] (ECL, cell lysates, +48 hours culture) was “induced highly significant (P<0.001) levels”.
